Experimental findings from patent US20230331809A1 are described below.

The assay deals with CD40 (Cluster of Differentiation 40) on cells (UniProt P25942).
CD40 (Cluster of Differentiation 40) on cells, sequence (P25942 21-277 limits assumed): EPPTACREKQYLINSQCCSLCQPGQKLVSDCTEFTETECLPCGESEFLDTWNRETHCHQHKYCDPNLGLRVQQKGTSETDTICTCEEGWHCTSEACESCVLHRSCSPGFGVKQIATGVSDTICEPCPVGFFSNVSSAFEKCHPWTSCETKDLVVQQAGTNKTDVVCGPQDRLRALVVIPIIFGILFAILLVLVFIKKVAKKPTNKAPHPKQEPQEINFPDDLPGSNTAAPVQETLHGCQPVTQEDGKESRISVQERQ

CD40L (Invivogen), native CD40 binding partner, sequence (P29965 113-261 limits assumed): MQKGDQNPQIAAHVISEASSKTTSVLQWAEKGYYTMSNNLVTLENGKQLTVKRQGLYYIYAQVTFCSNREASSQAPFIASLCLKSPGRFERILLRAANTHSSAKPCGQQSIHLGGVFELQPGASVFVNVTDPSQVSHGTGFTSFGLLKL

Consider “CD40L (Invivogen), native CD40 binding partner (from UniProt P29965 113-261) (ligand)”, for which the EC50, CD40 RGA, FcgRIIB CHOK1 stood at 0.81 µg/mL; the EC50, CD40 RGA, HEK Blue only came to 0.43 µg/mL; the EC50, CD40 RGA, WT CHOK1 is 0.44 µg/mL; the Fold wrt WT (EC50, relative to v32477 - uPa), CD40 RGA, FcgRIIB CHOK1 turned out to be 16.6 fold. Besides, the Fold wrt WT (EC50, relative to v32477 - uPa), CD40 RGA, HEK Blue only amounted to 2.76 fold and the Fold wrt WT (EC50, relative to v32477 - uPa), CD40 RGA, WT CHOK1 came to 3.19 fold.
